Read-outs that look alike come from different tables or passages of the source.
T1: Human RAD51 (purified) (human, UniProt Q06609 1-339)
T1 sequence (looked up): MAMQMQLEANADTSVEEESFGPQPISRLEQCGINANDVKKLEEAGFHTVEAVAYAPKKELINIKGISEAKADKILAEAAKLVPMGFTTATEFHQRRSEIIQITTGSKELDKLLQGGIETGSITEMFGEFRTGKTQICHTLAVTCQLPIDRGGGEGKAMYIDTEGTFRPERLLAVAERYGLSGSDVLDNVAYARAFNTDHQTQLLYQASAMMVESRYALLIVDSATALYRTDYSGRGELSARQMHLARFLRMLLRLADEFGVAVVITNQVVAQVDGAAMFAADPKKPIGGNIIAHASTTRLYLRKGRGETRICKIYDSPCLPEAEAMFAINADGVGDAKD

T2: PALB2 (purified from baculovirus-infected Sf9 cells as GST-PALB2-His) (human, UniProt Q86YC2 1-1186)
T2 sequence (looked up): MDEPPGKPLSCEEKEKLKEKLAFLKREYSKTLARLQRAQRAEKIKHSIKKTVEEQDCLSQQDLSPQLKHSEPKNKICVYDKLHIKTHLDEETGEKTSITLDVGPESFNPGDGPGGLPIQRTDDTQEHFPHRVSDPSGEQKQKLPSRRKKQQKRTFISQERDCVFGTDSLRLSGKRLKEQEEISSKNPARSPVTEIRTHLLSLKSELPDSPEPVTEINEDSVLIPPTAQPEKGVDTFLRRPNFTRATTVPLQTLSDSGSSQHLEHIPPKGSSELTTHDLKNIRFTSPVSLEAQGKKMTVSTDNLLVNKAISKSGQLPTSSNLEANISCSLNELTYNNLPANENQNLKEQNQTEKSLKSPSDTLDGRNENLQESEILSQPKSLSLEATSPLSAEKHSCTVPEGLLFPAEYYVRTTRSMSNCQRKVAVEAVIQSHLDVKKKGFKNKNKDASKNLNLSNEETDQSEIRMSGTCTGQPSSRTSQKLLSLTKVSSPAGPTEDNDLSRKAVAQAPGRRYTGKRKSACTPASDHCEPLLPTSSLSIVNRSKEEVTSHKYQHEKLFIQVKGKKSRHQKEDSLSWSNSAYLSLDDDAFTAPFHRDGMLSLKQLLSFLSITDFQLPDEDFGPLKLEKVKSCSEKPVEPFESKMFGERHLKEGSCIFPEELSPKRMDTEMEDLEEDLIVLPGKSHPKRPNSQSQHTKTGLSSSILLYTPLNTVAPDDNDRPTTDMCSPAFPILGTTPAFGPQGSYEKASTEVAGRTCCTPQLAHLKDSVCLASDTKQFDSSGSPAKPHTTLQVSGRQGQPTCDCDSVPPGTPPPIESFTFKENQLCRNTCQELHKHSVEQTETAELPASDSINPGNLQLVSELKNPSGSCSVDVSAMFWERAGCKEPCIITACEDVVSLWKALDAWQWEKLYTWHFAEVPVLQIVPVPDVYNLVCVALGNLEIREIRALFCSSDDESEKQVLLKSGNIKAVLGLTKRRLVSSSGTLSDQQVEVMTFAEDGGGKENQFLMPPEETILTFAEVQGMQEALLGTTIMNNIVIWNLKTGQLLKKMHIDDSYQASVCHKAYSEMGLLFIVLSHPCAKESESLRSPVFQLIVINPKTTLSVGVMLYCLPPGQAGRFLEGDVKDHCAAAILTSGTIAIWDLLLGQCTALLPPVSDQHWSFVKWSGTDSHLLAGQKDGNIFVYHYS

B1: GST-PALB2 truncation 5 (P2T5, amino acids 853-1186) (domain or fragment, human, UniProt Q86YC2 853-1186, looked up)
chain: GNLQLVSELKNPSGSCSVDVSAMFWERAGCKEPCIITACEDVVSLWKALDAWQWEKLYTWHFAEVPVLQIVPVPDVYNLVCVALGNLEIREIRALFCSSDDESEKQVLLKSGNIKAVLGLTKRRLVSSSGTLSDQQVEVMTFAEDGGGKENQFLMPPEETILTFAEVQGMQEALLGTTIMNNIVIWNLKTGQLLKKMHIDDSYQASVCHKAYSEMGLLFIVLSHPCAKESESLRSPVFQLIVINPKTTLSVGVMLYCLPPGQAGRFLEGDVKDHCAAAILTSGTIAIWDLLLGQCTALLPPVSDQHWSFVKWSGTDSHLLAGQKDGNIFVYHYS
B2: BRC3/4-GST polypeptide (BRC3 and BRC4 region of BRCA2, amino acids 1409-1596) (domain or fragment, human, UniProt P51587 1409-1596, looked up)
chain: LTATKTEQNIKDFETSDTFFQTASGKNISVAKESFNKIVNFFDQKPEELHNFSLNSELHSDIRKNKMDILSYEETDIVKHKILKESVPVGTGNQLVTFQGQPERDEKIKEPTLLGFHTASGKKVKIAKESLDKVKNLFDEKEQGTSEITSFSHQWAKTLKYREACKDLELACETIEITAAPKCKEMQN
B3: GST-PALB2 truncation 1 (P2T1, amino acids 1-200) (domain or fragment, human, UniProt Q86YC2 1-200, looked up)
chain: MDEPPGKPLSCEEKEKLKEKLAFLKREYSKTLARLQRAQRAEKIKHSIKKTVEEQDCLSQQDLSPQLKHSEPKNKICVYDKLHIKTHLDEETGEKTSITLDVGPESFNPGDGPGGLPIQRTDDTQEHFPHRVSDPSGEQKQKLPSRRKKQQKRTFISQERDCVFGTDSLRLSGKRLKEQEEISSKNPARSPVTEIRTHLL
B4: GST-RAD51 truncation 3 (R51T3, amino acids 184-257) (domain or fragment, human, UniProt Q06609 184-257, looked up)
chain: DVLDNVAYARAFNTDHQTQLLYQASAMMVESRYALLIVDSATALYRTDYSGRGELSARQMHLARFLRMLLRLAD

Tests used:
[1] = target: T1, Human RAD51 (purified); assay: pull-down
[2] = target: T2, PALB2 (purified from …); assay: co-IP
[3] = target: T2, PALB2 (purified from …); assay: co-IP; remark: listed apart in the source
[4] = target: B3; assay: co-IP
[5] = target: B1; assay: co-IP

B1
binding result [1]: binds

B2
binding result [2]: binds

B3
binding result [1]: binds

B4
binding result [3]: binds
binding result [4]: binds
binding result [5]: binds
